Results taken from the RNAGym collection of RNA variant scans (doi:10.1021/acssynbio.7b00057).

B1: Pistol ribozyme (parent)
chain: GGGUCGUUGUUCCAUAAUCGCGUGGAUAUGGCACGCAAGUUUCUACCGGGCACCGUAAAUGUCCGACUGGAGCCGUUCGGGCGGCUAUAAACAGACCUCAGGCCCGAAGCGUGGCGGCACCUGCCGCCGGUGGUAAAAAAGAUCGGAAGAGCACACGUCU

Variants of: B1
Assay: aptazyme ON/OFF ratio, guanine; higher = stronger switching; co-transcriptional cleavage with and without guanine

Row | Variant | aptazyme ON/OFF ratio
1 | U8C G9C U10C U11C C12G C13U | 1.06
2 | U7G U8A G9U U10G U11C C13G | 1.04
3 | U7C U8G G9A U10A U11C C13A | 1.03
4 | U7G U8C U11G C13G | 1.2
5 | U7G U8C U11A C12U C13U | 1.21
6 | U7A U8A G9C U11A C12G C13G | 1.2
7 | U7A G9C U10A U11G C12A C13A | 1.11
8 | U7C G9A U10G U11A C12U C13A | 1.05
9 | U10A C12G | 1.65
10 | U7C G9U U10G U11G C12U C13A | 1.07
11 | U7G U11C C12G C13G | 1.09
12 | U7G U11C C12G C13A | 1.2
13 | U7C U8C G9A U10C U11C | 3.61
14 | U8G G9U U10G U11G C13A | 1.04
15 | U7C U8A G9C U10A U11C C13A | 1.06
16 | U7A U10C U11G C12A C13U | 1.26
17 | U8G G9U U10C C12G C13U | 1.36
18 | G9C U10C U11C C12U C13A | 1.02
19 | U7A U8A G9C C12U | 1.26
20 | U7G U8C G9A U10C C13G | 1.08
21 | U7C U8A G9A U10C U11A C12A C13U | 1.15

Row | Variant | aptazyme ON/OFF ratio
22 | U7C U8C U10G U11A C12U C13U | 1.21
23 | U7C U10G U11G C13U | 1.22
24 | U7A U8C U10G U11C C12U | 1.28
25 | U7A U8G U10C U11G C12G C13G | 1.35
26 | G9A U11A C12U C13A | 1.37
27 | U7A U10C U11C C12A C13U | 1.1
28 | U7G G9A U11G C13U | 1.16
29 | U7G U8A G9C U10G U11G C13A | 1.19
30 | U7G G9U U11A C13A | 1.34
31 | U7C U10C U11A C12G C13A | 1.15
32 | U7C U8C U10A C12U | 1.12
33 | U7G U8G G9C U10A U11G C12U C13A | 1.07
34 | U8A G9U U10G U11C C13A | 1.03
35 | G9A U10C U11G C13A | 1.39
36 | U7C U8A G9U U11A C12G C13G | 1.15
37 | U8G U10G U11G C12U C13A | 1.42
38 | U7G G9C U10A U11A C12G C13G | 1.15
39 | U7G G9A U11A C13G | 1.1
40 | U7C U8G U10C U11C C13G | 1.09
41 | U7G U8G G9C U10G U11A C12G | 1.16
42 | U7A U8C U11A C12G C13A | 1.06

Row | Variant | aptazyme ON/OFF ratio
43 | U7G U8A G9C U10A C12G C13U | 1.03
44 | U8G U10A C12U C13G | 1.32
45 | U11A C12U C13A | 1.36
46 | U7G U8G G9A U10G U11A | 1.07
47 | U7A U8C G9U U10C C13U | 1.19
48 | U8C G9U U10G C13G | 1.21
49 | U7C U8C U10C U11A C12G | 1.05
50 | U7C G9U U10C U11C C12G C13G | 1.03
51 | U7C U8C U10C U11G C13A | 1.2
52 | U7A U8C G9C U10A U11G C12U | 1.19
53 | U8G G9C U10G C12U C13A | 1.08
54 | U8C U10G C12G | 1.07
55 | U7C G9C U10A C12A C13U | 1.09
56 | U7C U8G G9C U10A U11C C12G | 1.15
57 | U7A U8G G9U U10C U11A C13U | 1.33
58 | U7G U8C G9U U10G U11C C12A C13G | 1.45
59 | U7G G9C U11G C12U C13U | 1.2
60 | U7A U8G U11C C12G C13A | 1.02
61 | U7A U8C G9A U10A U11C C12U C13U | 1.05
62 | U7G G9A U11A C12G C13G | 1.13
63 | U7G U8C G9U U10C U11G C12A C13U | 1.25

Row | Variant | aptazyme ON/OFF ratio
64 | U7G U8C G9A U11G C13U | 1.19
65 | U7G U8C G9A U11G C13A | 1.14
66 | U8A G9U U10C U11A C12A C13U | 1.17
67 | U7G U8C G9C U10A U11G C12A C13A | 1.1
68 | U8G U10G U11A C13G | 1.18
69 | U8G U10G U11A C13A | 1.16
70 | U7C G9C U10A C12U C13G | 1.07
71 | U7G U8G G9C U10A U11A C12G | 1.07
72 | U7C U8G G9A U10G C12U C13G | 1.19
73 | U8G G9C U10A U11G C12G | 1.19
74 | U7C G9A U10G U11C C12A C13A | 1.2
75 | U7A U8G G9A U10G | 1.43
76 | U7C U8A G9U C12G C13G | 1.21
77 | U7C U8A U10G C12G C13A | 1.13
78 | U7C G9A U10G U11A C12A | 1.32
79 | U7A G9C U10G C12G C13A | 1.07
80 | U7A U8G G9A U10C U11A C12U C13A | 1.11
81 | U8A G9U U10G U11A C13A | 1.02
82 | U7C U8G C13G | 1.16
83 | U8A G9C U10A U11C C12G C13G | 1.09
